Experimental data: patent US20170252403A1, “METHODS AND COMPOSITIONS FOR TREATING RETINAL DISORDERS” (AMARANTUS BIOSCIENCE HOLDINGS, INC., priority 2014, published 2017)
Values joined by “and” are separate entries in the source; they are usually repeats but may differ in a detail not shown here. Identical values can stand only once. “Also recorded” adds a separate entry of the source. Like-named read-outs stand apart in the source and are kept apart here.

What was measured:
[1] = test system: eyes of pigmented rabbits; test: 15-day ocular tolerance study after single intravitreal administration; format: in vivo, pigmented rabbit; settings: MANF 3 mg/mL, 100 μL single intravitreal
Description: Ten female pigmented rabbits were divided into two groups of five animals each, corresponding to both treatments.
The eyes of the animals were examined by Split-lamp and assessed by using the McDonald-Shadduck's scale at Baseline and at Days 1, 3, 8 and 15. At the end of the in-life period on Day 15 both eyeballs of all animals were collected and processed for histology and microscopic examination.

[2] = test system: ischemia of the brain (tMCAO); settings: cited from earlier work
[3] = test system: primary mixed cortical/hippocampal neuronal cultures; settings: cultures exposed to the ER stressor tunicamycin; cited from earlier work
[4] = General behavior and body weight in the rat retinal ischemia study; settings: for Body weight, sacrifice day, mean: Day 7, group mean
Protocol: The body weight of all animals was recorded before the start of the study, on Day 0 and at the end of the study (Day 7).
Each day, the general behavior and the aspect of all animals were observed.

[5] = test system: retinal function after transient retinal ischemia (optic nerve clamping); test: Electroretinography (ERG a-wave/b-wave amplitude) after retinal ischemia by optic nerve clamping
Protocol: (§1) In this Example, retinal ischemia was induced by transient vascular clamping of the optic nerve in the right eyes of Sprague Dawley albino rats for 45 min. Reperfusion was initiated by the release of the clamp. Retinal function was evaluated by ERG at baseline and 7 days after ischemia. RGC survival was assessed by immunohistochemistry 7 days after ischemia.
(§2) Retinal ischemia was induced by vascular clamping of the optic nerve in the right eyes for 45 min. Reperfusion was initiated by the release of the clamp. Retinal function was evaluated by electroretinography (ERG) at baseline and 7 days after ischemia. Retinal Ganglion Cell (RGC) survival was assessed by immunohistology 7 days after ischemia.
The functional status of the retina was evaluated by electroretinography one week after the ischemic insult and compared to baseline values determined just prior to optic nerve ischemia. The b-wave is induced by potassium efflux shunted from activated bipolar cells by Müller cells and is an electrophysiological indicator of inner retinal signal transmission. The ERG parameters applied were the following: Color: white maximum; Maximum intensity: 2.6 cd·s/m2 (0 dB); Duration 0.24 ms; Numbers of flashes: 1; Filter: 50 Hz; Impedance threshold: 90 kΩ.
Test and control items were injected intravitreally (4 μL) in right eye from anesthetized rat using a mix of xylazine/ketamine and a 30-G needle mounted on a syringe, immediately after reperfusion.
Reference item was intraperitoneally dosed using a 0.5 mL/kg volume of administration, 30 min before induction.
Right eyes underwent a temporal orbitectomy combined with periorbital stripping. The globe remained in the orbit and was completely isolated on a pedicle consisting of the optic nerve, ophthamociliary arteries and the venous outflow. A clamp placed around the pedicle initiated the global ocular ischemia when tightened.
Ischemia was maintained for 45 minutes. The reperfusion period was initiated by the release of the clamp.
ERG was recorded before ischemia (baseline) and 7 days after reperfusion in both eyes. The a-wave and b-wave amplitudes (μV) were measured for each ERG; the a-wave and b-wave amplitudes as a percentage of the baseline values obtained before ischemia. […] Mydriaticum (0.5% tropicamide) were instilled for pupillary dilatation.
ERG parameters: • Color: white maximum. • Maximum intensity: 2.6 cd·s/m2 (0 dB); Duration 0.24 ms; number of flash: 1. • Filter: 50 Hz. • Impedance Threshold: 90 kΩ.

[6] = test system: retinal ganglion cells (RGC); test: Retinal ganglion cell survival (Brn3a immunohistochemistry on flat-mounted retinas) after retinal ischemia; settings: for Alive cells (BrN3A positive) in right eye, group Mean / Alive cells (BrN3A positive) in right eye, individual mean cells/mm^2: right injured eye; for Alive cells (BrN3A positive) in right eye, group Mean / Alive cells (BrN3A positive) in right eye, individual mean cells/mm^2 / RGC density, alive cells (BrN3A positive) in right eye: 7 days after ischemia; for Alive cells (BrN3A positive) in right eye, individual mean cells/mm^2: individual rats; for RGC density, alive cells (BrN3A positive) in right eye: 4 μL intravitreal once after reperfusion; for Alive cells (BrN3A positive) in right eye, group Mean / RGC density, alive cells (BrN3A positive) in right eye: group mean;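 for all read-outs here: sprague Dawley rats, right optic nerve vessels clamped 45 min then reperfused, Brn3a-stained RGC counted on flat-mounted retinas in cells/mm^2, 8 fields per retina, uninjured left eyes as naive controls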
Protocol: as §1, §2
To assess the effect of the treatment on RGC viability, the RGC density was evaluated 7 days after ischemia by immunohistochemistry with a stain for the RGC specific marker Brn3a.
After euthanasia, the right eyeballs were fixed in Formalin 4% (24 h at 4° C.), dissected and retinas were flat mounted. Two left eyes retinas per group were sampled and processed the same as the right eye retinas. They served as naïve controls. The flat mounted preparations were stained with an Alexa 594 conjugated anti-BRN3A (Brain-specific hoeobox/POU domain protein 3A, Chemicon, cat #mAb1585) to label RGC. Fluorescence images were recorded with Apotome microscope at magnification ×10 (Zeiss). RGC were counted with Image J software in 8 locations for each retina area (2 pictures per quarter). The cell count was reported in cell/mm^2.

[7] = MANF 1.5 mg/mL intravitreal, treated right (ischemic) eye, individual rats

B1: mesencephalic astrocyte-derived neurotrophic factor (protein)
chain: GRFYQDLKDRDVTFSPATIENELIKFCREARGKENRLCYYIGATDDAATKIINEVSKPLAHHIPVEKICEKLKKKDSQICELKYDKQIDLSTVDTKKLRVKELKKILDDWGETCKGCAEKSDYIRKINELMPKYAPKAASARTDL
Question: With B1 as the molecule, how does the “Effects on body weight, clinical observations or ophthalmic examinations” value ([1]; right eye, 15 days, McDonald-Shadduck scale) read?
Answer: no treatment- or administration-related effects

Question: What about the Ocular tolerance ([1]; 15 days) of the same molecule?
Answer: macroscopically and microscopically well tolerated

Question: And the “Histopathology evaluation of the eyes” value ([1]; Day 15)?
Answer: No pathological findings related to treatment

Question: What about the “Reduction of infarct size” value ([2]; MANF expressed in the cortex using an AAV-based vector) of the same molecule?
Answer: 40%

Question: And the “Reduction of infarct size” value ([2]; day 2, compared to vehicle treated animals)?
Answer: 50%

Question: And the “Protection against tunicamycin (TUNEL-positive cells as marker of apoptosis)” value [3]?
Answer: fully protected

Question: And the “Body weight, sacrifice day, mean” value ([4]; MANF 0.15 mg/mL intravitreal)?
Answer: 343 g

Question: What about the “Body weight, sacrifice day, mean” value ([4]; MANF 0.5 mg/mL intravitreal) of the same molecule?
Answer: 345 g

Question: And the “Body weight, sacrifice day, mean” value ([4]; MANF 1.5 mg/mL intravitreal)?
Answer: 347 g

Question: What about the “General behavior and appearance” value ([4]; daily observation during the study period, regardless the dose) of the same molecule?
Answer: not altered

Question: What about the “A-wave amplitude (μV), treated right eye” value ([5]; MANF 0.5 mg/mL intravitreal, Day 7, group mean) of the same molecule?
Answer: −268.9 μV

Question: And the “A-wave Amplitude (μV) Day 7” value [5, 7]?
Answer: −254 μV and −299 μV and −255 μV

Question: And the “B-wave Amplitude (μV) Day 7” value [5, 7]?
Answer: 426 μV and 456 μV

Question: What about the “Alive cells (BrN3A positive) in right eye, group Mean” value (“Alive cells … group Mean” below) ([6]; MANF 0.15 mg/mL intravitreal) of the same molecule?
Answer: 402.8 cells/mm^2

Question: What about the “Alive cells (BrN3A positive) in right eye, individual mean cells/mm^2” value (from here on “Alive cells … individual mean cells/mm^2”) ([6]; MANF 0.15 mg/mL intravitreal) of the same molecule?
Answer: 469 cells/mm^2 and 722 cells/mm^2 and 636 cells/mm^2 and 471 cells/mm^2 and 456 cells/mm^2 and 374 cells/mm^2 and 161 cells/mm^2 and 432 cells/mm^2 and 408 cells/mm^2 and 448 cells/mm^2 and 47 cells/mm^2 and 210 cells/mm^2

Question: And the “RGC density, alive cells (BrN3A positive) in right eye” value (shortened to “RGC density, alive cells”) ([6]; MANF 0.15 mg/mL)?
Answer: 403±189 cells/mm^2 and 402.8 cells/mm^2

Question: And the “Alive cells … group Mean” value ([6]; MANF 0.5 mg/mL intravitreal)?
Answer: 464.9 cells/mm^2

Question: What about the “Alive cells … individual mean cells/mm^2” value ([6]; MANF 0.5 mg/mL intravitreal) of the same molecule?
Answer: 512 cells/mm^2 and 443 cells/mm^2 and 613 cells/mm^2 and 364 cells/mm^2 and 379 cells/mm^2 and 549 cells/mm^2 and 336 cells/mm^2 and 97 cells/mm^2 and 249 cells/mm^2 and 1209 cells/mm^2 and 105 cells/mm^2 and 724 cells/mm^2

Question: And the “RGC density, alive cells” value ([6]; MANF 0.5 mg/mL)?
Answer: 465±301 cells/mm^2 and 464.9 cells/mm^2

Question: What about the “Alive cells … group Mean” value ([6]; MANF 1.5 mg/mL intravitreal) of the same molecule?
Answer: 487.7 cells/mm^2

Question: What about the “Alive cells … individual mean cells/mm^2” value ([6]; MANF 1.5 mg/mL intravitreal) of the same molecule?
Answer: 546 cells/mm^2 and 378 cells/mm^2 and 549 cells/mm^2 and 723 cells/mm^2 and 536 cells/mm^2 and 974 cells/mm^2 and 197 cells/mm^2 and 543 cells/mm^2 and 488 cells/mm^2 and 260 cells/mm^2 and 342 cells/mm^2 and 316 cells/mm^2

Question: And the “RGC density, alive cells” value ([6]; MANF 1.5 mg/mL)?
Answer: 488±214 cells/mm^2 and 488±14 cells/mm^2 and 487.7 cells/mm^2

Question: What about the “Protection of RGC, in words” value ([6]; single intravitreal MANF at 0.15, 0.5 and 1.5 mg/mL, one-week reperfusion) of the same molecule?
Answer: a trend in protecting RGCs; also recorded: protecting RGC
